These results are taken from article PMC12213002.

A short description of data set [1]: endogenous DDX3X western blot, HEK293T. Background: Immunoblotting shows a protein as a band on a membrane.
A short description of data set [2]: total DDX3X western blot, siRNA knock-down/rescue. The conditions noted are these: glycan lost; control: siDDX3X + SIR FLAG-DDX3X WT.
Data set [3] in a line: cycloheximide chase, FLAG western blot, HEK293T. The conditions noted are these: glycan lost; control: FLAG-DDX3X WT.
The nature of data set [4]: MG132 rescue of FLAG-DDX3X levels, P2A-GFP normalised. The conditions noted are these: glycan lost; control: FLAG-DDX3X WT.
Data set [5] can be described thus: FLAG western blot, transfected HEK293T, normalised to β-tubulin. The note with it: glycan lost; control: FLAG-DDX3X WT.

B1: DDX3X: OGT siRNA (protein)
parent chain: MSHVAVENALGLDQQFAGLDLNSSDNQSGGSTASKGRYIPPHLRNREATKGFYDKDSSGWSSSKDKDAYSSFGSRSDSRGKSSFFSDRGSGSRGRFDDRGRSDYDGIGSRGDRSGFGKFERGGNSRWCDKSDEDDWSKPLPPSERLEQELFSGGNTGINFEKYDDIPVEATGNNCPPHIESFSDVEMGEIIMGNIELTRYTRPTPVQKHAIPIIKEKRDLMACAQTGSGKTAAFLLPILSQIYSDGPGEALRAMKENGRYGRRKQYPISLVLAPTRELAVQIYEEARKFSYRSRVRPCVVYGGADIGQQIRDLERGCHLLVATPGRLVDMMERGKIGLDFCKYLVLDEADRMLDMGFEPQIRRIVEQDTMPPKGVRHTMMFSATFPKEIQMLARDFLDEYIFLAVGRVGSTSENITQKVVWVEESDKRSFLLDLLNATGKDSLTLVFVETKKGADSLEDFLYHEGYACTSIHGDRSQRDREEALHQFRSGKSPILVATAVAARGLDISNVKHVINFDLPSDIEEYVHRIGRTGRVGNLGLATSFFNERNINITKDLLDLLVEAKQEVPSWLENMAYEHHYKGSSRGRSKSSRFSGGFGARDYRQSSGASSSSFSSSRASSSRSGGGGHGSSRGFGGGGYGGFYNSDGYGGNYNSQGVDWWGN
Turning to B1, the expression_or_secretion entry in data set [1] (glycan lost, control: siRNA against firefly luciferase) is reported as “decreases”.

B2: DDX3X: SIR FLAG-DDX3X Ser584Ala (protein)
parent chain: MSHVAVENALGLDQQFAGLDLNSSDNQSGGSTASKGRYIPPHLRNREATKGFYDKDSSGWSSSKDKDAYSSFGSRSDSRGKSSFFSDRGSGSRGRFDDRGRSDYDGIGSRGDRSGFGKFERGGNSRWCDKSDEDDWSKPLPPSERLEQELFSGGNTGINFEKYDDIPVEATGNNCPPHIESFSDVEMGEIIMGNIELTRYTRPTPVQKHAIPIIKEKRDLMACAQTGSGKTAAFLLPILSQIYSDGPGEALRAMKENGRYGRRKQYPISLVLAPTRELAVQIYEEARKFSYRSRVRPCVVYGGADIGQQIRDLERGCHLLVATPGRLVDMMERGKIGLDFCKYLVLDEADRMLDMGFEPQIRRIVEQDTMPPKGVRHTMMFSATFPKEIQMLARDFLDEYIFLAVGRVGSTSENITQKVVWVEESDKRSFLLDLLNATGKDSLTLVFVETKKGADSLEDFLYHEGYACTSIHGDRSQRDREEALHQFRSGKSPILVATAVAARGLDISNVKHVINFDLPSDIEEYVHRIGRTGRVGNLGLATSFFNERNINITKDLLDLLVEAKQEVPSWLENMAYEHHYKGSSRGRSKSSRFSGGFGARDYRQSSGASSSSFSSSRASSSRSGGGGHGSSRGFGGGGYGGFYNSDGYGGNYNSQGVDWWGN
Take B2: the expression_or_secretion entry in data set [2] is “decreases”.

B3: DDX3X: Ser584Ala (protein)
parent chain: MSHVAVENALGLDQQFAGLDLNSSDNQSGGSTASKGRYIPPHLRNREATKGFYDKDSSGWSSSKDKDAYSSFGSRSDSRGKSSFFSDRGSGSRGRFDDRGRSDYDGIGSRGDRSGFGKFERGGNSRWCDKSDEDDWSKPLPPSERLEQELFSGGNTGINFEKYDDIPVEATGNNCPPHIESFSDVEMGEIIMGNIELTRYTRPTPVQKHAIPIIKEKRDLMACAQTGSGKTAAFLLPILSQIYSDGPGEALRAMKENGRYGRRKQYPISLVLAPTRELAVQIYEEARKFSYRSRVRPCVVYGGADIGQQIRDLERGCHLLVATPGRLVDMMERGKIGLDFCKYLVLDEADRMLDMGFEPQIRRIVEQDTMPPKGVRHTMMFSATFPKEIQMLARDFLDEYIFLAVGRVGSTSENITQKVVWVEESDKRSFLLDLLNATGKDSLTLVFVETKKGADSLEDFLYHEGYACTSIHGDRSQRDREEALHQFRSGKSPILVATAVAARGLDISNVKHVINFDLPSDIEEYVHRIGRTGRVGNLGLATSFFNERNINITKDLLDLLVEAKQEVPSWLENMAYEHHYKGSSRGRSKSSRFSGGFGARDYRQSSGASSSSFSSSRASSSRSGGGGHGSSRGFGGGGYGGFYNSDGYGGNYNSQGVDWWGN
In the case of B3, the “degradation_or_half_life, other: turnover rate” value in data set [3] is recorded as “decreases”. For the same protein, the “degradation_or_half_life, other: proteasome-dependent loss of protein” value in data set [4] was “decreases”. Besides, the “expression_or_secretion, percent_of_wt” value in data set [5] is recorded as “decreases”.

B4: DDX3X: FLAG-OGT WT over-expression (protein)
parent chain: MSHVAVENALGLDQQFAGLDLNSSDNQSGGSTASKGRYIPPHLRNREATKGFYDKDSSGWSSSKDKDAYSSFGSRSDSRGKSSFFSDRGSGSRGRFDDRGRSDYDGIGSRGDRSGFGKFERGGNSRWCDKSDEDDWSKPLPPSERLEQELFSGGNTGINFEKYDDIPVEATGNNCPPHIESFSDVEMGEIIMGNIELTRYTRPTPVQKHAIPIIKEKRDLMACAQTGSGKTAAFLLPILSQIYSDGPGEALRAMKENGRYGRRKQYPISLVLAPTRELAVQIYEEARKFSYRSRVRPCVVYGGADIGQQIRDLERGCHLLVATPGRLVDMMERGKIGLDFCKYLVLDEADRMLDMGFEPQIRRIVEQDTMPPKGVRHTMMFSATFPKEIQMLARDFLDEYIFLAVGRVGSTSENITQKVVWVEESDKRSFLLDLLNATGKDSLTLVFVETKKGADSLEDFLYHEGYACTSIHGDRSQRDREEALHQFRSGKSPILVATAVAARGLDISNVKHVINFDLPSDIEEYVHRIGRTGRVGNLGLATSFFNERNINITKDLLDLLVEAKQEVPSWLENMAYEHHYKGSSRGRSKSSRFSGGFGARDYRQSSGASSSSFSSSRASSSRSGGGGHGSSRGFGGGGYGGFYNSDGYGGNYNSQGVDWWGN
As for B4, the expression_or_secretion entry in data set [1] (glycan gained, control: FLAG-empty vector) is “increases”.
